Data reported in patent US20210388087A1 (Chugai, published 2021).

Each binder was assayed against T1, CD3 epsilon homodimer protein (UniProt P07766 23-126) (assay: SPR (Biacore T200), CD3 epsilon homodimer on CM4 chip, one-arm antibody as analyte, 25 C;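 note: homodimer attached to the sensor surface via amine coupling, HBS-EP+ used as running buffer during binding runs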).
T1 construct: immobilized on Sensor chip CM4 by amine coupling; also called CD3 (CD3 epsilon)
T1 sequence (P07766 23-126): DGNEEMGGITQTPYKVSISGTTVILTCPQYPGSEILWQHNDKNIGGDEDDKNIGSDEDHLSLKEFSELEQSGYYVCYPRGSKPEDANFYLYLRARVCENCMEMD

Row | ratio of amounts bound (altered form / CE115HA000) | Binder
1 | 0.24 | CE115HA000 Y97D one-arm antibody (antibody, human IgG1, kappa, L234A L235A, N297A, name in Kabat numbering) heavy: QVQLVESGGGVVQPGRSLRLSCAASGFTFSNAWMHWVRQAPGKGLEWVAQIKAKSNNYATYYAESVKGRFTISRDDSKNSLYLQMNSLKTEDTAVYYCRYVHDGAYYGVDAWGQGTTVTVSSASTKGPSVFPLAPSSKSTSGGTAALGCLVKDYFPEPVTVSWNSGALTSGVHTFPAVLQSSGLYSLSSVVTVPSSSLGTQTYICNVNHKPSNTKVDKKVEPKSCDKTHTCPPCPAPEAAGGPSVFLFPPKPKDTLMISRTPEVTCVVVDVSHEDPEVKFNWYVDGVEVHNAKTKPREEQYASTYRVVSVLTVLHQDWLNGKEYKCKVSNKALPAPIEKTISKAKGQPREPQVYTLPPSRCELTKNQVSLSCAVKGFYPSDIAVEWESNGQPENNYKTTPPVLDSDGSFFLVSKLTVDKSRWQQGNVFSCSVMHEALHNHYTQKSLSLSPDYKDDDDK EPKSSDKTHTCPPCPAPELLGGPSVFLFPPKPKDTLMISRTPEVTCVVVDVSHEDPEVKFNWYVDGVEVHNAKTKPREEQYNSTYRVVSVLTVLHQDWLNGKEYKCKVSNKALPAPIEKTISKAKGQPREPQVCTLPPSRDELTKNQVSLWCLVKGFYPSDIAVEWESNGQPENNYKTTPPVLDSDGSFFLYSKLTVDKSRWQQGNVFSCSVMHEALHNRYTQKSLSLSP light: DIVMTQSPLSLPVTPGEPASISCRSSQSLVHSNRNTYLHWYQQKPGQAPRLLIYKVSNRFSGVPDRFSGSGSGTDFTLKISRVEAEDVGVYYCGQGTQVPYTFGQGTKLEIKRTVAAPSVFIFPPSDEQLKSGTASVVCLLNNFYPREAKVQWKVDNALQSGNSQESVTEQDSKDSTYSLSSTLTLSKADYEKHKVYACEVTHQGLSSPVTKSFNRGEC
2 | 0.27 | CE115HA000 Y97R one-arm antibody (antibody, human IgG1, kappa, L234A L235A, N297A, name in Kabat numbering) heavy: QVQLVESGGGVVQPGRSLRLSCAASGFTFSNAWMHWVRQAPGKGLEWVAQIKAKSNNYATYYAESVKGRFTISRDDSKNSLYLQMNSLKTEDTAVYYCRYVHRGAYYGVDAWGQGTTVTVSSASTKGPSVFPLAPSSKSTSGGTAALGCLVKDYFPEPVTVSWNSGALTSGVHTFPAVLQSSGLYSLSSVVTVPSSSLGTQTYICNVNHKPSNTKVDKKVEPKSCDKTHTCPPCPAPEAAGGPSVFLFPPKPKDTLMISRTPEVTCVVVDVSHEDPEVKFNWYVDGVEVHNAKTKPREEQYASTYRVVSVLTVLHQDWLNGKEYKCKVSNKALPAPIEKTISKAKGQPREPQVYTLPPSRCELTKNQVSLSCAVKGFYPSDIAVEWESNGQPENNYKTTPPVLDSDGSFFLVSKLTVDKSRWQQGNVFSCSVMHEALHNHYTQKSLSLSPDYKDDDDK EPKSSDKTHTCPPCPAPELLGGPSVFLFPPKPKDTLMISRTPEVTCVVVDVSHEDPEVKFNWYVDGVEVHNAKTKPREEQYNSTYRVVSVLTVLHQDWLNGKEYKCKVSNKALPAPIEKTISKAKGQPREPQVCTLPPSRDELTKNQVSLWCLVKGFYPSDIAVEWESNGQPENNYKTTPPVLDSDGSFFLYSKLTVDKSRWQQGNVFSCSVMHEALHNRYTQKSLSLSP light: DIVMTQSPLSLPVTPGEPASISCRSSQSLVHSNRNTYLHWYQQKPGQAPRLLIYKVSNRFSGVPDRFSGSGSGTDFTLKISRVEAEDVGVYYCGQGTQVPYTFGQGTKLEIKRTVAAPSVFIFPPSDEQLKSGTASVVCLLNNFYPREAKVQWKVDNALQSGNSQESVTEQDSKDSTYSLSSTLTLSKADYEKHKVYACEVTHQGLSSPVTKSFNRGEC
3 | 0.18 | CE115HA000 Y97G one-arm antibody (antibody, human IgG1, kappa, L234A L235A, N297A, name in Kabat numbering) heavy: QVQLVESGGGVVQPGRSLRLSCAASGFTFSNAWMHWVRQAPGKGLEWVAQIKAKSNNYATYYAESVKGRFTISRDDSKNSLYLQMNSLKTEDTAVYYCRYVHGGAYYGVDAWGQGTTVTVSSASTKGPSVFPLAPSSKSTSGGTAALGCLVKDYFPEPVTVSWNSGALTSGVHTFPAVLQSSGLYSLSSVVTVPSSSLGTQTYICNVNHKPSNTKVDKKVEPKSCDKTHTCPPCPAPEAAGGPSVFLFPPKPKDTLMISRTPEVTCVVVDVSHEDPEVKFNWYVDGVEVHNAKTKPREEQYASTYRVVSVLTVLHQDWLNGKEYKCKVSNKALPAPIEKTISKAKGQPREPQVYTLPPSRCELTKNQVSLSCAVKGFYPSDIAVEWESNGQPENNYKTTPPVLDSDGSFFLVSKLTVDKSRWQQGNVFSCSVMHEALHNHYTQKSLSLSPDYKDDDDK EPKSSDKTHTCPPCPAPELLGGPSVFLFPPKPKDTLMISRTPEVTCVVVDVSHEDPEVKFNWYVDGVEVHNAKTKPREEQYNSTYRVVSVLTVLHQDWLNGKEYKCKVSNKALPAPIEKTISKAKGQPREPQVCTLPPSRDELTKNQVSLWCLVKGFYPSDIAVEWESNGQPENNYKTTPPVLDSDGSFFLYSKLTVDKSRWQQGNVFSCSVMHEALHNRYTQKSLSLSP light: DIVMTQSPLSLPVTPGEPASISCRSSQSLVHSNRNTYLHWYQQKPGQAPRLLIYKVSNRFSGVPDRFSGSGSGTDFTLKISRVEAEDVGVYYCGQGTQVPYTFGQGTKLEIKRTVAAPSVFIFPPSDEQLKSGTASVVCLLNNFYPREAKVQWKVDNALQSGNSQESVTEQDSKDSTYSLSSTLTLSKADYEKHKVYACEVTHQGLSSPVTKSFNRGEC
4 | 0.11 | CE115HA000 Y97P one-arm antibody (antibody, human IgG1, kappa, L234A L235A, N297A, name in Kabat numbering) heavy: QVQLVESGGGVVQPGRSLRLSCAASGFTFSNAWMHWVRQAPGKGLEWVAQIKAKSNNYATYYAESVKGRFTISRDDSKNSLYLQMNSLKTEDTAVYYCRYVHPGAYYGVDAWGQGTTVTVSSASTKGPSVFPLAPSSKSTSGGTAALGCLVKDYFPEPVTVSWNSGALTSGVHTFPAVLQSSGLYSLSSVVTVPSSSLGTQTYICNVNHKPSNTKVDKKVEPKSCDKTHTCPPCPAPEAAGGPSVFLFPPKPKDTLMISRTPEVTCVVVDVSHEDPEVKFNWYVDGVEVHNAKTKPREEQYASTYRVVSVLTVLHQDWLNGKEYKCKVSNKALPAPIEKTISKAKGQPREPQVYTLPPSRCELTKNQVSLSCAVKGFYPSDIAVEWESNGQPENNYKTTPPVLDSDGSFFLVSKLTVDKSRWQQGNVFSCSVMHEALHNHYTQKSLSLSPDYKDDDDK EPKSSDKTHTCPPCPAPELLGGPSVFLFPPKPKDTLMISRTPEVTCVVVDVSHEDPEVKFNWYVDGVEVHNAKTKPREEQYNSTYRVVSVLTVLHQDWLNGKEYKCKVSNKALPAPIEKTISKAKGQPREPQVCTLPPSRDELTKNQVSLWCLVKGFYPSDIAVEWESNGQPENNYKTTPPVLDSDGSFFLYSKLTVDKSRWQQGNVFSCSVMHEALHNRYTQKSLSLSP light: DIVMTQSPLSLPVTPGEPASISCRSSQSLVHSNRNTYLHWYQQKPGQAPRLLIYKVSNRFSGVPDRFSGSGSGTDFTLKISRVEAEDVGVYYCGQGTQVPYTFGQGTKLEIKRTVAAPSVFIFPPSDEQLKSGTASVVCLLNNFYPREAKVQWKVDNALQSGNSQESVTEQDSKDSTYSLSSTLTLSKADYEKHKVYACEVTHQGLSSPVTKSFNRGEC
5 | 0.9 | CE115HA000 Y100A one-arm antibody (antibody, human IgG1, kappa, L234A L235A, N297A, name in Kabat numbering) heavy: QVQLVESGGGVVQPGRSLRLSCAASGFTFSNAWMHWVRQAPGKGLEWVAQIKAKSNNYATYYAESVKGRFTISRDDSKNSLYLQMNSLKTEDTAVYYCRYVHYGAAYGVDAWGQGTTVTVSSASTKGPSVFPLAPSSKSTSGGTAALGCLVKDYFPEPVTVSWNSGALTSGVHTFPAVLQSSGLYSLSSVVTVPSSSLGTQTYICNVNHKPSNTKVDKKVEPKSCDKTHTCPPCPAPEAAGGPSVFLFPPKPKDTLMISRTPEVTCVVVDVSHEDPEVKFNWYVDGVEVHNAKTKPREEQYASTYRVVSVLTVLHQDWLNGKEYKCKVSNKALPAPIEKTISKAKGQPREPQVYTLPPSRCELTKNQVSLSCAVKGFYPSDIAVEWESNGQPENNYKTTPPVLDSDGSFFLVSKLTVDKSRWQQGNVFSCSVMHEALHNHYTQKSLSLSPDYKDDDDK EPKSSDKTHTCPPCPAPELLGGPSVFLFPPKPKDTLMISRTPEVTCVVVDVSHEDPEVKFNWYVDGVEVHNAKTKPREEQYNSTYRVVSVLTVLHQDWLNGKEYKCKVSNKALPAPIEKTISKAKGQPREPQVCTLPPSRDELTKNQVSLWCLVKGFYPSDIAVEWESNGQPENNYKTTPPVLDSDGSFFLYSKLTVDKSRWQQGNVFSCSVMHEALHNRYTQKSLSLSP light: DIVMTQSPLSLPVTPGEPASISCRSSQSLVHSNRNTYLHWYQQKPGQAPRLLIYKVSNRFSGVPDRFSGSGSGTDFTLKISRVEAEDVGVYYCGQGTQVPYTFGQGTKLEIKRTVAAPSVFIFPPSDEQLKSGTASVVCLLNNFYPREAKVQWKVDNALQSGNSQESVTEQDSKDSTYSLSSTLTLSKADYEKHKVYACEVTHQGLSSPVTKSFNRGEC
6 | 0.18 | CE115HA000 Y97S one-arm antibody (antibody, human IgG1, kappa, L234A L235A, N297A, name in Kabat numbering) heavy: QVQLVESGGGVVQPGRSLRLSCAASGFTFSNAWMHWVRQAPGKGLEWVAQIKAKSNNYATYYAESVKGRFTISRDDSKNSLYLQMNSLKTEDTAVYYCRYVHSGAYYGVDAWGQGTTVTVSSASTKGPSVFPLAPSSKSTSGGTAALGCLVKDYFPEPVTVSWNSGALTSGVHTFPAVLQSSGLYSLSSVVTVPSSSLGTQTYICNVNHKPSNTKVDKKVEPKSCDKTHTCPPCPAPEAAGGPSVFLFPPKPKDTLMISRTPEVTCVVVDVSHEDPEVKFNWYVDGVEVHNAKTKPREEQYASTYRVVSVLTVLHQDWLNGKEYKCKVSNKALPAPIEKTISKAKGQPREPQVYTLPPSRCELTKNQVSLSCAVKGFYPSDIAVEWESNGQPENNYKTTPPVLDSDGSFFLVSKLTVDKSRWQQGNVFSCSVMHEALHNHYTQKSLSLSPDYKDDDDK EPKSSDKTHTCPPCPAPELLGGPSVFLFPPKPKDTLMISRTPEVTCVVVDVSHEDPEVKFNWYVDGVEVHNAKTKPREEQYNSTYRVVSVLTVLHQDWLNGKEYKCKVSNKALPAPIEKTISKAKGQPREPQVCTLPPSRDELTKNQVSLWCLVKGFYPSDIAVEWESNGQPENNYKTTPPVLDSDGSFFLYSKLTVDKSRWQQGNVFSCSVMHEALHNRYTQKSLSLSP light: DIVMTQSPLSLPVTPGEPASISCRSSQSLVHSNRNTYLHWYQQKPGQAPRLLIYKVSNRFSGVPDRFSGSGSGTDFTLKISRVEAEDVGVYYCGQGTQVPYTFGQGTKLEIKRTVAAPSVFIFPPSDEQLKSGTASVVCLLNNFYPREAKVQWKVDNALQSGNSQESVTEQDSKDSTYSLSSTLTLSKADYEKHKVYACEVTHQGLSSPVTKSFNRGEC
